Tests used:
[1] = biological target: biotinylated Aβ oligomer bound to Neutravidin (Aβ42 oligomer SPR sensor) (UniProt P05067); assay: SPR, biotin-tagged Aβ on Neutravidin sensor (Oligomer sensor)
[2] = biological target: C-terminal monomer (Aβ monomer coupled at the carboxyl terminus) (UniProt P05067); assay: SPR, biotin-tagged Aβ on Neutravidin sensor (C-terminal monomer sensor)
[3] = biological target: N-terminal monomer (Aβ monomer coupled at the amino terminus) (UniProt P05067); assay: SPR, biotin-tagged Aβ on Neutravidin sensor (N-terminal monomer sensor)
[4] = biological target: globular Aβ oligomer (Aβ42 oligomers) on ELISA plates (UniProt P05067); assay: ELISA, Aβ oligomer plate, fitted maximum
[5] = biological target: Aβ monomer peptide (Aβ42 Peptide Monomer) on ELISA plates (UniProt P05067); assay: ELISA half-max titer, Aβ monomer plate against blank plate
[6] = biological target: Aβ monomer peptide (Aβ42 Peptide Monomer) on ELISA plates (UniProt P05067); assay: ELISA, Aβ monomer plate, fitted maximum
[7] = biological target: globular Aβ oligomer (Aβ42 oligomers) on ELISA plates (UniProt P05067); assay: ELISA, best fit of curves, blank plate against Aβ oligomer plate
[8] = biological target: globular Aβ oligomer (Aβ42 oligomers) on ELISA plates (UniProt P05067); assay: ELISA half-max titer, Aβ oligomer plate against blank plate
[9] = biological target: Aβ monomer peptide (Aβ42 Peptide Monomer) on ELISA plates (UniProt P05067); assay: ELISA, best fit of curves, blank plate against Aβ monomer plate
Aβ fibril (Aβ42 fibril) [10] = biological target: Aβ fibril (Aβ42 fibril) (UniProt P05067); assay: ELISA half-max titer, Aβ fibril plate against blank plate
Aβ fibril (Aβ42 fibril) [11] = biological target: Aβ fibril (Aβ42 fibril) (UniProt P05067); assay: ELISA, Aβ fibril plate, fitted maximum
Aβ fibril (Aβ42 fibril) [12] = biological target: Aβ fibril (Aβ42 fibril) (UniProt P05067); assay: ELISA, best fit of curves, blank plate against Aβ fibril plate
[13] = biological target: Aβ monomer peptide (Aβ42 Peptide Monomer) on ELISA plates (UniProt P05067); assay: ELISA, Aβ monomer plate, typical half maximum titer
[14] = biological target: globular Aβ oligomer (Aβ42 oligomers) on ELISA plates (UniProt P05067); assay: ELISA, Aβ oligomer plate, typical half maximum titer
[15] = biological target: Aβ monomer peptide (Aβ42 Peptide Monomer) on ELISA plates (UniProt P05067); assay: competition ELISA on Aβ monomer plates, IVIG in 3-fold dilutions from 1 mg/ml, competitor thyroglobulin 40 µg/ml
Aβ fibril (Aβ42 fibril) [16] = biological target: Aβ fibril (Aβ42 fibril) (UniProt P05067); assay: ELISA, Aβ fibril plate, typical half maximum titer
[17] = biological target: globular Aβ oligomer (Aβ42 oligomers) on ELISA plates (UniProt P05067); assay: ELISA on globular Aβ oligomer plates with chaotropic salt elution (avidity); this end, printed '>4M', is untreated IVIG (50% not reached at 4M, the highest concentration used)

Aβ fibril (Aβ42 fibril), sequence (P05067 672-713 limits assumed): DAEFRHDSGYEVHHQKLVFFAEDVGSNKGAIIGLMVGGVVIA
globular Aβ oligomer (Aβ42 oligomers) on ELISA plates, sequence (P05067 672-713 limits assumed): as above
Aβ monomer peptide (Aβ42 Peptide Monomer) on ELISA plates, sequence (P05067 672-713 limits assumed): as above
N-terminal monomer (Aβ monomer coupled at the amino terminus), sequence (P05067 672-713): as the sequence (P05067 672-713 limits assumed) above
C-terminal monomer (Aβ monomer coupled at the carboxyl terminus), sequence (P05067 672-713): as the sequence (P05067 672-713 limits assumed) above
biotinylated Aβ oligomer bound to Neutravidin (Aβ42 oligomer SPR sensor), sequence (P05067 672-713 limits assumed): as above

| Substance | Kd [1] [nM] | Kd [2] [nM] | Kd [3] [nM] | maximum binding value (A450 nm units) [4] | fold by which the blank plate half maximum binding titer is lower than the titer on this plate [5] [fold] | maximum binding value (A450 nm units) [6] | fold by which maximum binding on blank plates exceeds that on the amyloid plate [7] [fold] | fold by which the blank plate half maximum binding titer is lower than the titer on this plate [8] [fold] | fold by which maximum binding on blank plates exceeds that on the amyloid plate [9] [fold] | fold by which the blank plate half maximum binding titer is lower than the titer on this plate (Aβ fibril (Aβ42 fibril) [10]) [fold] | maximum binding value (A450 nm units) (Aβ fibril (Aβ42 fibril) [11]) | fold by which maximum binding on blank plates exceeds that on the amyloid plate (Aβ fibril (Aβ42 fibril) [12]) [fold] | half maximum titer [13] | half maximum titer [14] | percent of control binding in presence of competitor [15] [%] | half maximum titer (Aβ fibril (Aβ42 fibril) [16]) | ammonium thiocyanate concentration for 50% maximal binding [17] [M] |
| --- | --- | --- | --- | --- | --- | --- | --- | --- | --- | --- | --- | --- | --- | --- | --- | --- | --- |
| 6E10 monoclonal anti-Aβ antibody | 69 | 47 | 158 | – | – | – | – | – | – | – | – | – | – | – | – | – | – |
| intravenous immunoglobulin (IVIG; Gammagard Liquid, Baxter) (antibody) | – | – | – | 2.88 | 17.6 | 2.7 | 1.6 | 3.9 | 1.6 | 6.5 | 2.82 | 1.6 | 42.8 | 9.42 | 50 | 15.8 | 4 |

Reference: patent US20120183527A1
